B1: TPR t1 (parent)
chain: GACCAAUCUGCCCUCAGAGCUCGAGAACAUCUUCGGAUGCAGAGGAGGCAGGCUUCGGUGGCGCGAUAGCGCCAACGUCCUCAACCUCCAAUGCAUCCCACCACAUGAUGAUGCCUGAAGAGCCUUGGUUUUUUG

Variants of: B1
Assay: polymerase ribozyme fitness, log enrichment relative to wild type (log ratio); higher = more active; in vitro selection for triplet polymerase activity
Outline: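 Only genotypes with ≥10 input reads and ≥1 read per output were kept after Illumina sequencing of input and output libraries. These libraries were PCR-built, transcribed mutants of each subunit of a heterodimeric triplet polymerase ribozyme, each put through one triplicate in vitro selection round with frozen incubation at −7 °C, gel excision of extended constructs, streptavidin-bead capture and RT-PCR. Fitness is a logarithmic ratio of genotype enrichment to wild-type enrichment, from inverse-variance-weighted replicate averages, with the logarithm in base 2.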

Variant | polymerase ribozyme fitness (log ratio)
G19A G60A G93U | -3.84
G19A G60C A75U A90C C98U C114A | -3.78
G19A G61A C104A G107A A121G | -5.44
G19A G61A U125G | -2.54
G19A G61A U132C | -2.94
G19A G63A U92A | -4.56
G19A G71A | -3.99
G19A G71C C115U G128U | -5.92
G19A G71C C124A | -2.56
G19A G71C G127C | -4.23
G19A G77U | -2.96
G19A G93U | -4.24
G19A U78G A84U C115U A121C | -5.73
G19A U87G A105C A111C | -4.37
G19C C20U C40A G61A U87A U112A | -5.56
G19C C40U G93U C114G G122A | -0.927
G19C C49G U92A U125G | -4.13
G19C C72G | -3.09
G19C C86G A121G | -0.947
G19C G42U C62U C76G U92G | -4.02
G19C G42U U92A | -2.69
G19C G45A G60A U106A | -4.35
G19C G48U | -2.5
G19C G61C C88A | -4.49

Variant | polymerase ribozyme fitness (log ratio)
G19C G63C A111G C115G | -5.11
G19C G71U C114A G128A | -2.59
G19C U87A | -2.58
G19C U130C | -2
G19U A24U A41C A43U U92G C101G G110U | -6.86
G19U A26U C64U U78C C114A | -1.82
G19U A37U | -3.17
G19U A41C U92A C94U C115U U133G | -5.87
G19U A41G G63U | -4.85
G19U A43C | -3.38
G19U A43U A74U | -3.22
G19U A43U G47U U112A G120A | -2.08
G19U A50C C98U G110A A121G | -6.95
G19U A50U | -3.48
G19U A74G | -3.02
G19U A119G G128A | -3.71
G19U C20G G57U C70G C85U C101U U112G | -6.53
G19U C20U C72A U131A | -3.4
G19U C20U U106C | -2.36
G19U C31U C56G C124U | -6.42
G19U C40U | -3
G19U C56A | -3.03
G19U C64U | -2.87
G19U C72U A84C | -2.82

Variant | polymerase ribozyme fitness (log ratio)
G19U C82A | -3.28
G19U C86G | -3.71
G19U C124U | -1.97
G19U G39U G48A A111G | -4.12
G19U G39U G93A U106C G120U | -5.8
G19U G45C A91C A111C | -3.35
G19U G47C C97U C114G | -2.97
G19U G61C | -4.85
G19U U21A C79G C114A | -0.277
G19U U21A G47C A90C G113C | -4.49
G19U U21G C49A G71A C114A | 0.71
G19U U55C | -4.3
G19U U87A U106C A118U | -4.56
G19U U87G G110C U112G | -6.7
G19U U96A C114A | 0.905
G19U U96G C114A | 1.12
C20A A27C C62U | -4.63
C20A A27U A43U | -5.37
C20A A27U A95G U131A | -3.17
C20A A37G C49A G63A | -4.85
C20A A37U A83C | -3.38
C20A A41G C53A G71U U78G | -5.43
C20A A46C C62U C86U | -3.97
C20A A46C U78C A111C C114A | -3.99

Variant | polymerase ribozyme fitness (log ratio)
C20A A50G G52A C124A | -1.12
C20A A91G U109G | -4.02
C20A C22A C62G U81G U96G A121U | -5.74
C20A C28A G36A A90C G110U | -4.25
C20A C28A G47C C97U G110C | -6.66
C20A C28G C94U A111G | -7.69
C20A C28U G39U G71U C97U C123A | -6.92
C20A C31G G39U A46U G47A A100C A108U U125A | -6.51
C20A C34A A41C G69U C73U | -5.14
C20A C40G | -4.64
C20A C40U U132A | -2.39
C20A C49A G63U | -4.62
C20A C49G | -2.27
C20A C49G U106C | -3.68
C20A C53A U59A | -2.85
C20A C53U | -2.46
C20A C62G G63U C114A G120A | -6.07
C20A C70U G93A G113C U132C | -7.65
C20A C72A A118U | -1.46
C20A C72A C101A | -5.69
C20A C72U | -2.98
C20A C73A | -2.14
C20A C76A U106A | -4.96
C20A C79A | -3.62

Variant | polymerase ribozyme fitness (log ratio)
C20A C82A U87G | -1.92
C20A C85G | -3.75
C20A C89U U130A | -3.54
C20A C104A | -3.99
C20A G35U | -5.42
C20A G42A G57U A100C | -6.04
C20A G42U G60A | -3.62
C20A G42U G120A | -3.01
C20A G44U | -4.1
C20A G44U G69A C86A C123G | -6.49
C20A G45A | -2.28
C20A G48A C49G G61A U87G A90C | -5.02
C20A G51A G61C | -6.95
C20A G52C | -2.97
C20A G57C | -3.31
C20A G61A C80G U109A G113U U133G | -7.36
C20A G63A A74C U96A | -5.16
C20A G77A | -3.54
C20A G77U | -3.11
C20A G93A | -3.32
C20A G117A | -3.21
C20A G117U | -3.2
C20A G120A | -1.89
C20A U32G G35C G93A G113A U125A | -6.57

Variant | polymerase ribozyme fitness (log ratio)
C20A U87G A100G C102A A119G | -5.22
C20A U96G | -3.33
C20A U125A | -3.22
C20A U132A | -2.24
C20G A37G A118U | -3.12
C20G A46U | -4.99
C20G A46U C114U | -3.16
C20G A91G C101A G117C | -4.92
C20G C40A C70U U92A G93A G113C | -6.62
C20G C40A G58C A121U | -4.66
C20G C53A | -4.27
C20G C53G | -4.62
C20G C53U | -3.06
C20G C56A | -4.28
C20G C56G A84U | -4.43
C20G C56U C72U | -3.6
C20G C56U C123A | -5.13
C20G C62A | -4.56
C20G C62U C98U A111U G120C | -4.17
C20G C72A U87C G113A U130G | -1.05
C20G C72U | -4.16
C20G C73A C101U G113U | -0.556
C20G C73U A83C | -4.27
C20G C82A | -4.78

Variant | polymerase ribozyme fitness (log ratio)
C20G C94U C114A G122U U125G | -6.15
C20G C115A | -3.94
C20G C115G | -4.85
C20G C115U G117C | -4.63
C20G C123G U132G | -3.39
C20G G23U U32A C98G C123G U131G | -6.64
C20G G36A A43C U96G G117C | -5.42
C20G G36A A121C | -3.32
C20G G39A G57A U109A | -3.93
C20G G44A G120C | -4.1
C20G G44U C56A A68G C98A C114U | -6.77
C20G G45A U130C | -5.42
C20G G48A G52A | -6
C20G G61U C79A G117C C123A | -6.44
C20G G63U C82G G113C G128U | -4.75
C20G G71A C72A C80U G110C G117C | -6.92
C20G G93A | -5.03
C20G G117U | -5.16
C20G G120U | -4.25
C20G G122A | -4
C20G G135C | -3.68
C20G U30G C114G G117U C124G | -7.61
C20G U78C | -3.43

— the RNAGym collection of RNA variant scans (doi:10.1073/pnas.2313332121)
